# Measured values: the supplement of paper PMC11908140
# B1: library; numbered along this chain (parent)
# chain: MRKPRAAVGSGHRKQAASQEGRQKHAKNNSQAKPSACDGLARQPEEVVLQASVSSYHLFRDVAEVTAFRGSLLSWYDQEKRDLPWRRRAEDEMDLDRRAYAVWVSEVMLQQTQVATVINYYTGWMQKWPTLQDLASASLEEVNQLWAGLGYYSRGRRLQEGARKVVEELGGHMPRTAETLQQLLPGVGRYTAGAIASIAFGQATGVVDGNVARVLCRVRAIGADPSSTLVSQQLWGLAQQLVDPARPGDFNQAAMELGATVCTPQRPLCSQCPVESLCRARQRVEQEQLLASGSLSGSPDVEECAPNTGQCHLCLPPSEPWDQTLGVVNFPRKASRKPPREESSATCVLEQPGALGAQILLVQRPNSGLLAGLWEFPSVTWEPSEQLQRKALLQELQRWAGPLPATHLRHLGEVVHTFSHIKLTYQVYGLALEGQTPVTTVPPGARWLTQEEFHTAAVSTAMKKVFRVYQGQQPGTCMGSKRSQVSSPCSRKKPRMGQQVLDNFFRSHISTDAHSLNSAAQ
# Variants of: B1
# Assay: 8OG:A repair function score (normalized; synonymous = 0, nonsense = -1) (normalized log-likelihood score); higher = more repair activity (WT-like)
# Conditions: with 8OG:A DNA repair reporter (GFP) in HEK-293 MUTYH KO cells
# Procedure: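 Saturation mutagenesis (NNN codon scan) of the MUTYH cDNA (521-aa nuclear isoform NM_001048174.1 / NP_001041639), stably expressed under doxycycline induction in HEK-293 MUTYH knockout cells. Cells were co-transfected with an 8OG:A-bearing GFP repair reporter plus mCherry and sorted 72 h later into GFP+ and GFP− bins, three replicates per tile. The Rosace log2 enrichment (GFP+ vs GFP−) was converted per tile to a normalized function score with synonymous variants centered at 0 and nonsense variants (codons 1-471) at -1; low-abundance variants were removed.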
row,Variant,8OG:A repair function score
1,G309L,-0.0772
2,T440K,0.0852
3,T440N,-0.313
4,P306G,-0.0173
5,P306E,-0.0828
6,A194R,-1.1
7,A194M,-0.32
8,A194Y,-1.23
9,Q232F,-0.308
10,L408C,0.18
11,Y120G,-0.347
12,Y120V,-0.224
13,S515G,-0.000426
14,S515P,-0.0381
15,Q252K,-0.999
16,Y56N,-0.0497
17,E375H,-0.347
18,L229M,-0.0886
19,L229V,0.0526
20,S487V,0.0175
21,S487K,0.0147

row,Variant,8OG:A repair function score
1,R213W,-1
2,Q43N,-0.0614
3,C216L,-0.469
4,F250N,-0.903
5,F250G,-0.867
6,L234I,-0.183
7,L234C,-0.521
8,L313H,-0.299
9,L313W,-0.257
10,L313R,-0.425
11,Q472A,0.0214
12,T424F,-0.0268
13,W103V,-0.986
14,A196M,-0.507
15,A196I,-0.703
16,A196V,-0.382
17,P443Q,0.0864
18,P443S,0.0247
19,G188E,-0.866
20,A400Y,-0.116
21,V485N,-0.00234

row,Variant,8OG:A repair function score
1,A89K,-0.0427
2,N517A,-0.00673
3,L392V,-0.289
4,G293N,-0.03
5,Q388A,0.235
6,V114Q,-0.313
7,T122V,-0.0114
8,S419C,-0.434
9,P129V,-0.608
10,M108N,-1.18
11,Y121L,-0.993
12,Y121F,-0.109
13,G193M,-0.156
14,R332G,-0.193
15,L289A,0.00592
16,S343Y,0.129
17,V107Q,-0.746
18,V107D,-1.44
19,Q271V,0.0124
20,Q271S,-0.0229
21,L72N,-2.41

row,Variant,8OG:A repair function score
1,L72E,-1.21
2,R491E,0.0286
3,L369P,0.0626
4,G209T,-0.207
5,R364N,-0.633
6,H57A,-0.797
7,H57D,-0.824
8,Q240I,-0.959
9,S197E,-0.903
10,S197A,-0.271
11,G148A,-0.564
12,L430S,-0.127
13,R86K,-0.756
14,R86I,-0.915
15,C347D,-1.26
16,G258I,-1.02
17,E302N,-0.316
18,E342S,-0.0341
19,W128I,-0.397
20,S507R,-0.00355
21,A115S,-0.0518
